Literature values as cited in PMC7905041.
pKd: −log10 of the molar value.

Molecular target: CD40 ECD (Homo sapiens) (UniProt P25942)
Test: SPR

- pKd: 6.22
Substance: CD40 CRD1/PLAD (from UniProt P25942)
